Measurements taken from US20240132578A1.

Legend:
Assay in all cases: cell-based or functional assay
[1] = biological target: HIV-1 MGRM-AG-003 Env (pseudovirus) (HIV-1)
[2] = biological target: HIV-1 Env of pseudovirus MGRM-G-025 (HIV-1)
[3] = biological target: HIV-1 MGRM-AG-001 Env (pseudovirus) (HIV-1)
[4] = biological target: HIV-1 Env of isolate MGRM-A-004 (clade A pseudovirus) (HIV-1)
[5] = biological target: HIV-1 Env of isolate MGRM-D-011 (clade D pseudovirus) (HIV-1)
[6] = biological target: HIV-1 Env of pseudovirus MGRM-F1-018 (clade F) (HIV-1)
[7] = biological target: HIV-1 Env of isolate MGRM-D-012 (clade D pseudovirus) (HIV-1)
[8] = biological target: HIV-1 Env of isolate MGRM-A-013 (clade A pseudovirus) (HIV-1)
[9] = biological target: HIV-1 93IN905 envelope (Env) on pseudovirus (HIV-1)
[10] = biological target: HIV-1 Env of isolate 93TH305, clade B (HIV-1)
[11] = biological target: HIV-1 Env of isolate 92RW009 (clade A pseudovirus) (HIV-1)
[12] = biological target: HIV-1 Env of isolate 93UG077 (clade A pseudovirus) (HIV-1)
[13] = biological target: HIV-1 CMU02 Env (pseudovirus) (HIV-1)
[14] = biological target: HIV-1 Env of isolate MGRM-D-024 (clade D pseudovirus) (HIV-1)
[15] = biological target: HIV-1 92TH021 envelope (Env) on pseudovirus (HIV-1)
[16] = biological target: HIV-1 Env of isolate MGRM-AG-002 (pseudovirus) (HIV-1)
[17] = biological target: HIV-1 Env of isolate MGRM-AG-012 (pseudovirus) (HIV-1)
[18] = biological target: HIV-1 Env of isolate MGRM-AG-005 (pseudovirus) (HIV-1)
[19] = biological target: HIV-1 JR-CSF Env E466A (HIV-1 (isolate JR-CSF)) (UniProt P20871)
[20] = biological target: HIV-1 envelope glycoprotein (Env) of isolate 93WR029, subtype A (HIV-1)
[21] = biological target: HIV-1 envelope glycoprotein (Env) of isolate 94 KE 105, subtype AC (HIV-1)
[22] = biological target: HIV-1 envelope glycoprotein (Env) of isolate MG RM-A-007, subtype A (HIV-1)
[23] = biological target: HIV-1 envelope glycoprotein (Env) of isolate MG RM-A-011, subtype A (HIV-1)
[24] = biological target: HIV-1 envelope glycoprotein (Env) of isolate MGRM-Chronic-B-001, on pseudovirus (HIV-1)
[25] = biological target: HIV-1 envelope glycoprotein (Env) of isolate MGRM-Chronic-B-012, on pseudovirus (HIV-1)
[26] = biological target: HIV-1 JR-CSF Env I423A (I4234 in the source) (HIV-1 (isolate JR-CSF)) (UniProt P20871)

Chain of 1443_C16 (PG16) (TCN-116) (antibody) (VH): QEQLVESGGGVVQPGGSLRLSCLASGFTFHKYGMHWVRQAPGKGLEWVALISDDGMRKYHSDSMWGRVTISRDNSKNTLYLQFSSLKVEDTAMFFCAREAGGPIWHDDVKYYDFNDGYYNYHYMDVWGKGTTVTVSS
Chain of 1443_C16 (PG16) (TCN-116) (antibody) (VL): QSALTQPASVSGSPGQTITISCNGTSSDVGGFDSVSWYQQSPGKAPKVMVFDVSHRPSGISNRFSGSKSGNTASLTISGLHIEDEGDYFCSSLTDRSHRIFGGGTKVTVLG

| Substance | IC50 (µg/ml), pseudovirus neutralization [1] [µg/mL] | IC50 (µg/ml), pseudovirus neutralization [2] [µg/mL] | IC50 (µg/ml), pseudovirus neutralization [3] [µg/mL] | IC50 (µg/ml), pseudovirus neutralization [4] [µg/mL] | IC50, pseudovirus neutralization [5] [µg/mL] | IC50 [6] [µg/mL] | IC50, pseudovirus neutralization [7] [µg/mL] | IC50 (µg/ml), pseudovirus neutralization [8] [µg/mL] | neutralization IC50 [9] [µg/mL] | IC50 (µg/ml), pseudovirus neutralization [10] [µg/mL] | IC50 (µg/ml), pseudovirus neutralization [11] [µg/mL] | IC50 (µg/ml), pseudovirus neutralization [12] [µg/mL] | IC50 (µg/ml), pseudovirus neutralization [13] [µg/mL] | IC50, pseudovirus neutralization [14] [µg/mL] | neutralization IC50 [15] [µg/mL] | IC50 (µg/mL), pseudovirus neutralization [16] [µg/mL] | IC50 (µg/mL), pseudovirus neutralization [17] [µg/mL] | IC50 (µg/mL), pseudovirus neutralization [18] [µg/mL] | IC50, pseudovirus neutralization [20] [µg/mL] | IC50, pseudovirus neutralization [21] [µg/mL] | also measured |
| --- | --- | --- | --- | --- | --- | --- | --- | --- | --- | --- | --- | --- | --- | --- | --- | --- | --- | --- | --- | --- | --- |
| 1443_C16 (PG16) (TCN-116) (antibody) | > 50 | > 50 | 0.03 | 0.04 | 0.01 | 0.01 | 0.35 | 0.09 | 0.102 | 19.3 | 0.11 | > 50 | 43.6 | 0.02 | 0.127 |  |  |  |  |  |  |
| 1496_C09 (PG9) (TCN-109) (antibody) | 9.71 |  | 8.83 |  | 0.06 | 0.03 | 9.31 | 0.16 |  | 2.08 | 0.03 |  | 7.69 | 0.03 | 0.111 | 0.076 | 22.8 |  |  |  |  |
| PGV04 (antibody) |  |  |  |  |  |  |  |  |  |  |  |  |  |  |  | 0.879 | 0.04 | 0.027 |  |  |  |
| 5145_B14 (PGT-127) (antibody) |  |  |  |  |  |  |  |  |  |  |  |  |  |  |  | > 50 | > 50 | > 50 | > 50 | 0.023 | Fold IC50 increase relative to wild-type (pseudovirus neutralization) [19]: 0.9 fold; IC50, pseudovirus neutralization [22]: > 50 µg/mL; IC50, pseudovirus neutralization [23]: > 50 µg/mL; IC50, pseudovirus neutralization [24]: > 50 µg/mL; IC50, pseudovirus neutralization [25]: 0.075 µg/mL; Fold IC50 increase relative to wild-type (pseudovirus neutralization) [26]: 0.5 fold |
| 4838_L06 (PGT-121) (antibody) |  |  |  |  |  |  |  |  |  |  |  |  |  |  |  |  |  |  | > 50 | 0.029 | IC50, pseudovirus neutralization [22]: > 50 µg/mL; IC50, pseudovirus neutralization [23]: > 50 µg/mL; IC50, pseudovirus neutralization [24]: 0.102 µg/mL; IC50, pseudovirus neutralization [25]: 0.036 µg/mL |
| b12 (antibody) | > 50 | > 50 | 11.9 | > 50 | 7.75 | > 50 | 0.13 | 7.04 | 34.1 | 4.17 | > 50 | 47 | 29.3 | 5.92 | 9.99 |  |  |  |  |  |  |
| 4858_P08 (PGT-123) (antibody) |  |  |  |  |  |  |  |  |  |  |  |  |  |  |  | > 50 | > 50 | 0.149 | > 50 | 0.024 | Fold IC50 increase relative to wild-type (pseudovirus neutralization) [19]: 0.6 fold; IC50, pseudovirus neutralization [22]: > 50 µg/mL; IC50, pseudovirus neutralization [23]: > 50 µg/mL; IC50, pseudovirus neutralization [24]: 0.15 µg/mL; IC50, pseudovirus neutralization [25]: 0.227 µg/mL; Fold IC50 increase relative to wild-type (pseudovirus neutralization) [26]: 1.5 fold |
| 4E10 (antibody) | 0.64 | 1.7 | 1.12 | 3.14 | 0.91 | 3.6 | 1.13 | 1.46 | 1.55 | 12.3 | > 50 | 10.6 | 0.72 | 3.6 | 1.9 |  |  |  |  |  |  |
